Experimental data taken from patent US20240174744A1 (SCIRHOM, published 2024).

Tests used:
[1] = target: T1, hiR2-FL-K536A-T7 (human iRhom2 full length K536A, 3 x T7 tag) (human, UniProt Q6PJF5 1-856); test: FACS on MEF-DKO-hiR2-FL-K536A-T7 cells, PE anti-mouse IgG F(ab')2 detection
T1 sequence: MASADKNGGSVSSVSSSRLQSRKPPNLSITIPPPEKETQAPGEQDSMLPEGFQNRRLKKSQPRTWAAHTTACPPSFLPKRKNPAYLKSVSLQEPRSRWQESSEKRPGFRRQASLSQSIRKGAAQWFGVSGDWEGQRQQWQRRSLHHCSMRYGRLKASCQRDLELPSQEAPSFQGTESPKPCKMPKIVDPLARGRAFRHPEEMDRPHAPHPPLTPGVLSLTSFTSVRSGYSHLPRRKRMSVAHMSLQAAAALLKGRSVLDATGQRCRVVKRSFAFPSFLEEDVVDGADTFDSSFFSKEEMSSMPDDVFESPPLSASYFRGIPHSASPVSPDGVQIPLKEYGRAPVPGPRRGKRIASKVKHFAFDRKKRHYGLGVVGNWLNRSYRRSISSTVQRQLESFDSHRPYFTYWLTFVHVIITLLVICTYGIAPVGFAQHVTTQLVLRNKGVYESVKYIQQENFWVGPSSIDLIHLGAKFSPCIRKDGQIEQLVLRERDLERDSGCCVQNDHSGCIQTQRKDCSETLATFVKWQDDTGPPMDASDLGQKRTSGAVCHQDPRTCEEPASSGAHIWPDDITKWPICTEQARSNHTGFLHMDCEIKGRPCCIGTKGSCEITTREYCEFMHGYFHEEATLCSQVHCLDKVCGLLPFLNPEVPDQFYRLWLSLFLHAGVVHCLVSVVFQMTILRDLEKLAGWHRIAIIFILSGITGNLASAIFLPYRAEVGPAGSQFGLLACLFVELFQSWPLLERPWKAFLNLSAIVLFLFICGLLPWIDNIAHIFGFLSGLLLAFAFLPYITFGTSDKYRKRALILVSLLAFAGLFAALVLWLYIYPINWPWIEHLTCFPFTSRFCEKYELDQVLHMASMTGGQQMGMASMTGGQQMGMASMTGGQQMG

[2] = target: T2, dog iRhom2 full length wild type, C-terminally tagged with 3 consecutive copies of the T7 epitope (dog, UniProt Q00M95 1-827); test: FACS on MEF-DKO-iR2 Dog cells, 3 µg/ml
T2 construct: whole, on cells; also called Dog-iR2-FL-WT-T7
T2 sequence: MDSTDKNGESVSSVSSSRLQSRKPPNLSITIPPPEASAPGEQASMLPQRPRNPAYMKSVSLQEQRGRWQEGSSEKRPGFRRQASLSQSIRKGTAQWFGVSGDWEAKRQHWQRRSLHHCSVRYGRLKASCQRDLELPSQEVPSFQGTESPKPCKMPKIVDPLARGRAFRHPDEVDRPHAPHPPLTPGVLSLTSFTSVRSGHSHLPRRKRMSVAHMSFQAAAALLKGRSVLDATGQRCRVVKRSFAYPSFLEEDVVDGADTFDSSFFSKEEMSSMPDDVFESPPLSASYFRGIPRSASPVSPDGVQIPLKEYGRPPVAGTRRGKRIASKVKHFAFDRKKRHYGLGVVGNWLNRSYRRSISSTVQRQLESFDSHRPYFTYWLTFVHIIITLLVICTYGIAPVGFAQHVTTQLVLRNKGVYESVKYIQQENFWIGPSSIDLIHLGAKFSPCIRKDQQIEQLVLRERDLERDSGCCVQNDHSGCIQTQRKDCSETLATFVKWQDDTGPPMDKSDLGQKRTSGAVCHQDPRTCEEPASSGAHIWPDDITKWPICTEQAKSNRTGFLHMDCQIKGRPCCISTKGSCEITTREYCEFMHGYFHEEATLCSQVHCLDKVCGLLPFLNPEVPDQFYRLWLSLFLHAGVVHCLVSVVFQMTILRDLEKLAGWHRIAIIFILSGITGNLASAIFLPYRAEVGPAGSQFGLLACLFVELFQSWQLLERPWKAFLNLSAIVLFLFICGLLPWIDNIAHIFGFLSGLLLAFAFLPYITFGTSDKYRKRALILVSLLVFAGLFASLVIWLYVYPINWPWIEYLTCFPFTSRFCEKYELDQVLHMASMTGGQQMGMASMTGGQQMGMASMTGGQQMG
Protocol: In brief, immortalized MEF-DKO-EV control cells, MEF-DKO-rhesus-iR2-FL-WT-T7 cells, MEF-DKO-cyno-iR2-FL-WT-T7 cells, MEF-DKO-dog-iR2-FL-WT-T7 cells and MEF-DKO-rabbit-iR2-FL-WT-T7 cells, as well as their respective iRhom1 counterparts, were harvested with 10 mM EDTA in PBS, washed and resuspended in FACS buffer (PBS, 3% FBS, 0.05% sodium azide), and seeded in Nunc U-bottom 96-well plates (Thermo Fisher Scientific, USA) at approximately 3×10⁵ cells per well. To pellet cells and remove supernatants, the plates were centrifuged at 1,500 rpm and 4° C. for 3 minutes. For primary staining, cells were resuspended in 100 μl per well of either FACS buffer alone (controls), mouse monoclonal anti-T7 IgG (Merck Millipore, USA) at 3 μg/ml FACS buffer or the antibodies of the present disclosure also at 3 μg/ml FACS buffer and incubated on ice for 1 hour. Afterwards, plates were centrifuged at 1,500 rpm and 4° C. for 3 minutes and washed twice with 200 μl per well of FACS buffer. For secondary staining, cells were spun down and resuspended in 100 μl per well of PE-conjugated goat anti-mouse IgG F(ab′)2 detection fragment (Dianova, Germany) diluted 1:100 in FACS buffer. Protected from light, the cell suspensions were incubated on ice for 1 hour. […] Finally, cells were resuspended in 150 μl per well of FACS buffer and analyzed using a BD Accuri™ C6 Plus flow cytometer (Becton Dickinson, Germany).

B1: antibody 5 (antibody, V domains shown)
VH: QVTLKESGPGILQPSQTLSLTCSFSGFSLSTFGMGVGWIRQPSGKGLEWLAHIWWDDEKYYNSALKSRLTISKATSKNQAFLKIANVDTADTATYYCARISNYGSNYWYFNVWGTGTTVTVSS
VL: QVVLTQSPALMSASPGEKVTMTCSAGSSVSCMYWYQQKPGSSPRVLIYDTSNLASGVPARFTGSGSGTSYSLTISRMEAEDAASYYCQQWNSYPLTFGAGTKLELK
notes: Mouse IgG, kappa light chain; also called clone #5; purified antibody 5
[1]
  binding result: no binding (tested: 3 µg/ml)

B2: antibody 16 (antibody, V domains shown)
VH: QVTLKESGPGILQPSQTLSLTCSFSGFSLSTFALGVGWIRQPSGRGLEWLAHIWWDDDKYYNPALKSRLTISKDTSKNHVFLKIANVDTADTATYYCARITTYYYGMDYWGQGTSVTVSS
VL: DIVLSQSPATLSVTPGDSVSLFCRASQSIGNHLHWYQQESHASPRLLIKYASQSISGIPSRFSGSGSGTDFTLSINSVETEDFGMYFCQQSYNWPLTFGAGTKLELK
notes: Mouse IgG, kappa light chain; also called clone #16; m16
[2]
  binding result: binds
